In IntAct's records for PubMed 24434579:

B1: Seipin (Saccharomyces cerevisiae), Q06058 (parent)
chain: MKINVSRPLQFLQWSSYIVVAFLIQLLIILPLSILIYHDFYLRLLPADSSNVVPLNTFNILNGVQFGTKFFQSIKSIPVGTDLPQTIDNGLSQLIPMRDNMEYKLDLNLQLYCQSKTDHLNLDNLLIDVYRGPGPLLGAPGGSNSKDEKIFHTSRPIVCLALTDSMSPQEIEQLGPSRLDVYDEEWLNTIRIEDKISLESSYETISVFLKTEIAQRNLIIHPESGIKFRMNFEQGLRNLMLRKRFLSYIIGISIFHCIICVLFFITGCTAFIFVRKGQEKSKKHS
partner: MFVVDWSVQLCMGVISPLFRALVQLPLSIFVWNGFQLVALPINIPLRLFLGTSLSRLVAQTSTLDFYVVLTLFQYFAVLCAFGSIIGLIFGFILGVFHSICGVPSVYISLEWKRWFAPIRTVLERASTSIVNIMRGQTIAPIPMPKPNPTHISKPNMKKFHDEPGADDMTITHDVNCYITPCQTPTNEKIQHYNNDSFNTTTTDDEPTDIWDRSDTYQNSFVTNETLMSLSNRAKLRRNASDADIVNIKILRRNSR

Variants of: B1
Conditions: with ldb16_yeast LDB16, P25587

Question: MKINVSRPLQFLQWSSYIVVAFLIQLLIILPLSILIYHDFYLRLLPADSSNVVPLNTFNILNGVQFGTKFFQSIKSIPVGTDLPQTIDNGLSQLIPMRDNMEYKLDLNLQLYCQSKTDHLNLDNLLIDVYRGPGPLLGAPGGSNSKDEKIFHTSRPIVCLALTDSMSPQEIEQLGPSRLDVYDEEWLNTIRIEDKISLESSYETISVFLKTEIAQRNLIIHPESPIKFRMNFEQGLRNLMLRKRFLSYIIGISIFHCIICVLFFITGCTAFIFVRKGQEKSKKHS [G225P] was tested. Which “effect of a mutation on the interaction” value did it give?
Answer: decreasing interaction strength
